The assay has as its target lactate dehydrogenase (LDH). In words: phage ELISA, 405 nm; LDH coated.

The values that follow come from patent publication US7056679.

LTPYSLARSWLSGRPSTGATAAAGAPVPYPDPLEPRP (peptide, not shown: large carriers) [DGI-2-20F-3-C12] had an LDH (OD) of 1 OD.

B1: DGI-2-40F-3-C6 (peptide, not shown: large carriers)
peptide: QMFSKGNWLAHPEGGVALGLSRESQLFRSCREFGYCMGPMAAAGAPVPYPDPLEPRP
With B1, the LDH (OD) was determined as 0.8 OD.

B2: DGI-2-40F-4-F12 (peptide, not shown: large carriers)
peptide: GLYRRAGDASVGFSRWGRFDCQVYFSVECLLGSSWGGYSAAAGAPVPYPDPLEPRP
Molecule B2 returned an LDH (OD) of 0.9 OD.

B3: DGI-2-40F-3-B116 (peptide, not shown: large carriers)
peptide: GVVRAQQGLRYELQGDRYRLRRTQWLTVTYCSPSWAFAGCAAAGAPVPYPDPLEPRP
In turn, B3 gave an LDH (OD) of 0.8 OD. In turn, MGSLGPFGNINSLASGIGSVRNRPLLPLHGSPAAAGAPVPYPDPLEPRP (peptide, not shown: large carriers) [DGI-2-40F-3-D72] came in with an LDH (OD) of 1.1 OD.

B4: DGI-2-40F-3-B122 (peptide, not shown: large carriers)
peptide: HSGNRQSGSRRTHLLNIFCSSDTFVFPGWSAYLSRVCPGDAAAGAPVPYPDPLEPRP
As to B4, the LDH (OD) was found to be 0.8 OD. As for SWRLWVSGELQGDRRKGLRGAAAGAPVPYPDPLEPRP (peptide, not shown: large carriers) [DGI-2-20R-3-B7], the LDH (OD) is 1 OD. The figure for LTWGPQFGSLQVYSRHRGLPAAAGAPVPYPDPLEPRP (peptide, not shown: large carriers) [DGI-2-20R-4-E4] is 1.2 OD; for TPDRCLIYSSIQCLLEYSARRGSADAAAGAPVPYPDPLEPRP (peptide, not shown: large carriers) [DGI-2-20C-3-C65] it is 1 OD; for RFWSVSYQGGRVMCREWGYCLPIAAAGAPVPYPDPLEPRP (peptide, not shown: large carriers) [DGI-2-40F-3-C92] it is 0.8 OD.

B5: DGL-2-40F-3-D10 (peptide, not shown: large carriers)
peptide: TLVTEGNKGSVKAHKDIGVWQLWWDWLSVTDSETVGRVSHAAAGAPVPYPDPLEPRP
In the case of B5, the LDH (OD) is 0.9 OD.

ACSVGTALVFPQRWWYLGRSAAAGAPVPYPDPLEPRP (peptide, not shown: large carriers) [DGL-2-20R-3-D6] showed an LDH (OD) of 1.1 OD.

B6: DGI-2-40F-3-D12 (peptide, not shown: large carriers)
peptide: QGSAHVVRPPGVYDVPWKVGMFFHPQNWPNSWGRAYFRSGAAAGAPVPYPDPLEPRP
Turning to B6, the LDH (OD) came to 1 OD.

B7: DGI-2-40F-3-B11 (peptide, not shown: large carriers)
peptide: LAPMFLQNQVRTWAASRRPLPAGPSNARCETGSLSPWVPCAAAGAPVPYPDPLEPRP
Molecule B7 came in with an LDH (OD) of 0.9 OD. In turn, WAGSTDLWQLWSLWVKPELRAAAGAPVPYPDPLEPRP (peptide, not shown: large carriers) [DGI-2-20F-3-B7] yielded an LDH (OD) of 0.9 OD. In the case of LQIVRPAGWKMPGQVGYYIGAAAGAPVPYPDPLEPRP (peptide, not shown: large carriers) [DGI-2-20R-3-A9] it was 1 OD; in that of GNKCFPPHDLFWDPCDQLQSAAAGAPVPYPDPLEPRP (peptide, not shown: large carriers) [DGI-2-20R-4-F6], 1 OD; in that of FSSTGILLRSGRATAVGHVTAAAGAPVPYPDPLEPRP (peptide, not shown: large carriers) [DGI-2-20F-3-A6], 1.1 OD.

RWSLPAYLCRFVSQASCNSRAAAGAPVPYPDPLEPRP (peptide, not shown: large carriers) [DGI-2-20R-3-C12] gave an LDH (OD) of 1 OD. On to GLRACDTYLGFCVGARRIDDAAAGAPVPYPDPLEPRP (peptide, not shown: large carriers) [DGI-2-20F-3-B102], for which the LDH (OD) is 1 OD. RWSICRGLQYSIPGCAVEDLSDVMAAAAGAPVPYPDPLEPRP (peptide, not shown: large carriers) [DGI-2-20C-4-H316] returned an LDH (OD) of 1 OD.

B8: DGI-2-40F-3-D7 (peptide, not shown: large carriers)
peptide: ALRSLGSGGFGWQAGRASPQGMTHFPYFGWSGMPTARVRPAAAGAPVPYPDPLEPRP
In turn, B8 showed an LDH (OD) of 1 OD.

For LSHPMSPLRAASQMALTQGVAAAGAPVPYPDPLEPRP (peptide, not shown: large carriers) [DGI-2-20R-4-H7], the LDH (OD) was 1.2 OD. In turn, GMWIRPNGHMFLQGGYTARSAAAGAPVPYPDPLEPRP (peptide, not shown: large carriers) [DGI-2-20R-4-G8] came in with an LDH (OD) of 1.1 OD. The figure for MSTLQGPGHLFQMLRRASLGAAAGAPVPYPDPLEPRP (peptide, not shown: large carriers) [DGI-2-20R-4-H12] is 1.3 OD.

B9: DGI-2-40F-3-D6 (peptide, not shown: large carriers)
peptide: GLEPVPFQTDKRIAMGWTREWLVNGYGAAHRRDARMQSGHAAAGAPVPYPDPLEPRP
In turn, B9 had an LDH (OD) of 1 OD. Molecule GSVLERGCLEFSGFCFSLGHAAAGAPVPYPDPLEPRP (peptide, not shown: large carriers) [DGI-2-20F-3-C1] gave an LDH (OD) of 1 OD. The molecule LSLLSVVVRSMGASAPQRQVAAAGAPVPYPDPLEPRP (peptide, not shown: large carriers) [DGI-2-20F-3-A7] came in with an LDH (OD) of 0.9 OD. The figure for RNWLDKDCVWMGDCGARAGEAAAGAPVPYPDPLEPRP (peptide, not shown: large carriers) [DGI-2-20F-4-E3] is 0.9 OD.

B10: DGI-2-40F-4-F6 (peptide, not shown: large carriers)
peptide: SYRNFAMQSSLQVRRGSVVEDGTCWWEGVRCYSGAAAGAPVPYPDPLEPRP
In turn, B10 returned an LDH (OD) of 1 OD. The figure for SLSLYWDAQVGCEVFWGYCVAAAGAPVPYPDPLEPRP (peptide, not shown: large carriers) [DGI-2-20R-3-C10] is 1 OD; for DAGIGWVGSMWFPPGCIGACAAAGAPVPYPDPLEPRP (peptide, not shown: large carriers) [DGI-2-20R-4-E82] it is 1.1 OD; for YDQVWNSLLAAVLGGQELVNAAAGAPVPYPDPLEPRP (peptide, not shown: large carriers) [DGI-2-20F-3-D112] it is 1 OD.

For the molecule PAMGHCMQVLGPVLEGRSRDQVGRAAAGAPVPYPDPLEPRP (peptide, not shown: large carriers) [DGI-2-20R-4-G6], the LDH (OD) was determined as 1.1 OD. In the case of LHFGSVMGWRPPGSLWSRPFGQVHPRSWSGSAAAGAPVPYPDPLEPRP (peptide, not shown: large carriers) [DGI-2-40F-3-D11] it was 1.3 OD; in that of VAFGEQIRVAMAGTLWQRWRAAAGAPVPYPDPLEPRP (peptide, not shown: large carriers) [DGI-2-20R-3-D5], 1.1 OD; in that of TANGHRYGGCGLWCKWMSGMAAAGAPVPYPDPLEPRP (peptide, not shown: large carriers) [DGI-2-20R-4-E2], 1.1 OD. With TSCQVMFLAGQHLLSRVPRLAAAGAPVPYPDPLEPRP (peptide, not shown: large carriers) [DGL-2-20R-3-B6], the LDH (OD) is 1 OD.
